US20050089521A1 (published 2005)

Biological target: T1, human trkC (human, UniProt Q16288 32-429, limits assumed)
T1 construct: also called htrkC; trkC receptor
Experiment: BIAcore analysis (SPR); format not stated

| Binder | Kd [nM] |
| --- | --- |
| humanized anti-trkC agonist antibody A5 (antibody, V domains shown, also called humanized monoclonal antibody A5) VH: QVQLVQSGAEVKKPGASVKVSCKASGYTFTSYRIHWVRQAPGQGLEWMGEIYPSNARTNYNEKFKSRVTMTRDTSTSTVYMELSSLRSEDTAVYYCARKYYYGNTRRSWYFDVWGQGTTVTVS VL: DIQMTQSPSSLSASVGDRVTITCRASESIDNYGISFLAWYQQKPGKAPKLLIYAASNRGSGVPSRFSGSGSGTDFTFTISSLQPEDIATYYCQQSKTVPRTFGQGTKLEIKR | ~0.28 |
| mouse anti-trkC agonist monoclonal antibody 2256 (antibody, V domains shown) VH: QVQLQQPGAELVKPGASVKLSCKASGYTFTSYWMHWVKQRPGQGLEWIGEIYPSNGRTNYNEKFKSKATLTVDKSSSTAYMQLSSLTSEDSAVYYCARKYYYGNSYRSWYFDVWGAGTTLTVS VL: not shown | ~40 |
